Source: patent publication US20260102528A1 (University of California, published 2026)

Tests used:
[1] = target: T1, V7-ARS1620 HLA-A*03:01 MHC-I complex (human); test: competition ELISA: the concentration is that of free ARS1620 (small molecule, the varied competitor); read-out is P2B2 IgG-HRP binding to W6/32-captured A*03:01/V7-ARS
T1 construct: also called V7-ARS HLA-A*03:01; V7-ARS A*03:01
Description: The complexes were captured by the conformation-specific antibody W6/32 and detected by the ARS1620-specific antibody (P1A4) in the presence of various amounts of free ARS1620. Data is presented as mean±standard deviation for four replicates.
MHC-I refolding and purification. […] Refolding reactions were performed with various peptides of interest in refolding buffer (100 mM Tris pH 8.0, 400 mM L-Arginine.HCl, 5 mM reduced glutathione, 0.5 mM oxidized glutathione, 2 mM EDTA, and complete protease inhibitor cocktail (Roche)). Briefly, B2m (2 μM) and peptide (10 μM) were diluted into refolding buffer, then denatured heavy chain was added to 1 μM. Reactions proceeded at 10° C. overnight for ELISA assays. MHC-I ELISAs. Black, 384 well Nunc Maxisorp plates were coated with 50 μL of the anti-heavy chain antibody W6/32 (Bio X Cell Cat #BE0079, RRID:AB_1107730) at 5 μg/mL in PBS overnight. The plate was washed twice with PBS (100 μL) and blocked with 3% BSA PBS (120 μL) for 1 hour at room temperature. Plates were then washed three times with 0.05% Tween-20 PBS (PBST) (100 μL). Refolded MHC complexes (crude or FPLC purified) were diluted 10× into 1% BSA PBS and 50 μL added to wells in quadruplicate. Plates were incubated at room temperature with shaking for 1 hour, then washed three times with 1% BSA PBS (100 μL).

[2] = target: T2, K5-ARS1620 HLA-A*02:01 MHC-I complex (human); test: BLI (Octet), Fab on immobilised biotinylated pMHC
T2 construct: also called K5-ARS HLA-A*02:01
Description: (§1) Kinetic measurements via Octet. Kinetic constants for Fabs were determined using an Octet RED384 instrument (ForteBio). For screens, a single concentration of Fab (100 nM) was tested, and for kinetic characterization Fabs were tested at several concentrations, as noted in the relevant figure. Biotinylated peptides (1 μM in 1% BSA/PBS) or biotinylated MHC-I complexes (200 nM in 1% BSA/PBS) were immobilized on ForteBio streptavidin SA biosensors for all assays. All measurements were performed in 1% BSA PBS pH 7.4 in 384 well plates. Data were analyzed using a 1:1 interaction model with global fitting on the ForteBio data analysis software (9.0.0.6). KD values were determined by the fitting of either equilibrium or maximum response (nm) as a function of Fab concentration.

[3] = target: T1, V7-ARS1620 HLA-A*03:01 MHC-I complex; test: BLI (Octet), Fab on immobilised biotinylated pMHC
Description: as §1

[4] = target: T3, V7-AMG510 HLA-A*03:01 MHC-I complex (human); test: BLI (Octet), derived from FIG. 3A; biotinylated MHC-I complex on streptavidin biosensor
T3 construct: also called V7-Sotorasib A*03:01; V7-510 A*03:01
Description: as §1

[5] = target: T3, V7-AMG510 HLA-A*03:01 MHC-I complex; test: competition ELISA: the concentration is that of free AMG510 (small molecule, the varied competitor) preincubated with the Fab; read-out is Fab binding to streptavidin-captured V7-AMG510 HLA-A*03:01, anti-myc IgG-HRP; legend calls the values approximate
Description: FIG. 3A-3D show characterizations of six V7-AMG510 A*03:01-reactive Fabs. […] Approximate IC₅₀ values for free drug (AMG510) competition for each clone are reported, as derived from FIG. 3C. […] Recombinant V7-AMG510 HLA-A*03:01 was captured via streptavidin in an ELISA and increasing amounts of free AMG510 preincubated with the indicated clones in Fab format before detection of Fab binding with an anti-myc secondary IgG-HRP conjugate. Data are presented as the mean #standard deviation of three replicates. […] Data are presented as the mean±standard deviation of four replicates.

[6] = target: T3, V7-AMG510 HLA-A*03:01 MHC-I complex; test: BLI (Octet), Fab on immobilised biotinylated pMHC
Description: as §1

[7] = target: T3, V7-AMG510 HLA-A*03:01 MHC-I complex; test: BLI, Fab on pMHC
Description: as §1

B1: P2B2 IgG-HRP conjugate (antibody, V domains shown)
VH: QVQLVESGGGVVQPGRYLRLSCATSGFTFSNYAMHWVRQAPGKGLEWVALISYDGSNKYYADSVKGRFTISRDKSTNALYLQMNSLRVEDTAVYYCARERVPWDYYGMDVWGQGTTVTVSS
VL: QSVVTQPPSVSAAPGHKVSISCSGSNSNIGHNYVSWYQQFPGTAPKLLVYRDDNRPSEVPDRFSGSKSGTSATLGITGLQTADEADYYCGTWDSTLQHVVFGGGTKLTVL
notes: also called V7-ARS-HLA-A*03:01-specific antibody P2B2
For B1, the “IC50 of free ARS1620” value [1] was 445 nM.

B2: P2B2 Fab (Fab, V domains shown)
VH: B1 VH
VL: QSVVTQPPSVSAAPGHKVSISCSGSNSNIGHNYVSWYQQFPGTAPKLLVYRDDNRPSEVPDRFSGSKSGTSATLGITGLQTADEADYYCGTWDSTLQHVVFGGGTKLTVLS
notes: also called P282
B2 gave a Kd [2] of 470 nM and a Kd [3] of 43 nM.

B3: P1H4 Fab (Fab, V domains shown)
VH: EVQLVQSGAEVKKPGSSVKVSCKASGGTFSSYAISWVRQAPGQGLEWMGGIIPIFGTANYAQKFQGRVTITADKSTSTAYMELSSLRSEDTAVYYCAFNYYDSSGYSDYWGQGTLVTVSS
VL: ETTLTQSPGTLSLSPGERATLSCRASQSVSSSYLAWYQQKPGQAPRLLIYGASSRATGIPDRFSGSGSGTDFTLTISRLEPGDFAVYYCQQYGTSPITFGQGTRLEIKR
For B3, the Kd [4] was 59 nM and the “AMG510 IC50” value [5] was roughly 930 nM.

B4: P1E5 Fab (Fab, V domains shown)
VH: QVQLQESGGGVVQPGRSLRLSCAASGFTFSSYEMNWVRQAPGKGLEWVAVISYDGSNKYYADSVKGRFTISRDNSKNTLYLQMNSLRAEDTAVYYCARDAYSGWFDYWGQGTLVTVSS
VL: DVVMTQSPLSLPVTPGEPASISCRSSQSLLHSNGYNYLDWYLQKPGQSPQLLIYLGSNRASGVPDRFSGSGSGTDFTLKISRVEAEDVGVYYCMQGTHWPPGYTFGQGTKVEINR
For B4, the Kd [6] was 13 nM and the “AMG510 IC50” value [5] was roughly 200 nM.

B5: P1B7 Fab (Fab, V domains shown)
VH: QVQLQQSGPGLVKPSQTLSLTCAISGDSVSSNSVAWNWIRQSPSRGLEWLGRTYYRSKWYSDYAVSVKSRITINPDTSKNQFSLQLTSMTPEDTAVYYCAREGVTMGPGAFDIWGQGTMVTVSS
VL: QSALTQPPSVSGSPGQSVTISCTGSSSDVGHYNRVSWYQQSPGTAPKLMIYDVSNRPSGAFSRFSGSRSGNTASLTISGLQPEDEADYYCSSHRTGYTVEVFGTGTKVTVLG
Binder B5 has a Kd [7] of 15 nM.

B6: P2E3 Fab (Fab, V domains shown)
VH: QVQLQESGPGLVKPSETLSLTCTVSGGSVSSSSYYWGWIRQPPGEGLEWIGSIYYSGSTYYNPSLKSRVTISVDTSKNQFSLKLSSVTAADTAVYYCATRLRGSFDYWGQGTLVTVSS
VL: DVVMTQSPLSLPVTPGEAASISCRSSQSLLHSNGYTYLDWYLQKPGQSPRLLIYSGSNRASGVPDRFSGSGSGTDFTLKISRVEAEDVGVYYCMQGTHWPYTFGQGTRLEIKR
B6 was tested, and the Kd [4] was 68 nM.

B7: P2C1 Fab (Fab, V domains shown)
VH: EVQLVQSGAEVKKPGSSVKVSCKASGGTFSSYAISWVRQAPGQGLEWMGIINPSGGSTSYAQKFQGRVTMTRDTSTSTVYMELSSLRSEDTAVYYCARDLGTIFEANGAFDIWGQGTMVTVSS
VL: QSALTQPASVSGSPGQSITISCTGTSSDVGSYNLVSWYQQHPGKAPKLMIYDVSNRPSGVSNRFSGSKSGNTASLTISGLQAEDEADYYCSSYTSSSTLVFGTGTNVTVLG
In the case of B7, the Kd [6] is reported as 230 nM and the “AMG510 IC50” value [5] is reported as roughly 1500 nM.

B8: P1C10 Fab (Fab, V domains shown)
VH: QVQLVQSGGGLVKPGGSLRLSCAASGFTFSSYSMNWVRQAPGKGLEWVSYISSRGRTIYYADSVKGRFTISRDNAKNSLYLQMNSLRAEDTAVYYCVRDVPGVWGFAYWGQGTLVTVSS
VL: QSVVTQPPSVSAAPGQKVTISCSGSSSNIGNHYVSWYQQLPGTAPKLLIYDDGKRPSGIPDRFSGSKSGTSATLGITGLQTGDEADYYCATWDNSLSVVLFGGGTKLTVLG
B8 gave a Kd [2] of 320 nM and a Kd [3] of 59 nM.

B9: P2B6 Fab (Fab, V domains shown)
VH: QLQLQESGPGLVKPSETLSLTCTVSGVSISSRSDHWGWVRQPPGKGLEWIGSISYSGSTYYNPSLKSRVTISVDTSKNQLSLKLTSVTAADTAVYYCARRALAQQLVMDVWGQGTTVTVSS
VL: DVVMTQSPLSLPVTPGEPASISCRSSQSLLRNNGYNYLDWYLQKPGQSPQLLIYLGSNRASGVPDRFSGSGSGRDFTLKISRVEAEDVGIYYCMQGAHWPYTFGQGTNLEISR
For B9, the Kd [4] was 29 nM and the “AMG510 IC50” value [5] was roughly 74 nM.
